Source: patent US20150087584A1

Target: Helicoverpa armigera gut proteases (HGP) (Helicoverpa armigera)
Test: cell-based or functional assay

Chain of inhibitory repeat domain IRD-7 of Capsicum annuum Pin-II proteinase inhibitors (CanPIs) (O49146 other isoform, or with tags, fused parts or gaps): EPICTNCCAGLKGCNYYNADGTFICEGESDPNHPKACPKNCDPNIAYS

Q: Which results are given for “inhibitory repeat domain IRD-7 of Capsicum annuum Pin-II proteinase inhibitors (CanPIs) (from UniProt O49146 152-198)”?
A: HGPI activity of the IRD alone at its IC50 concentration: 49%; inhibition of HGP activity (BApNA and Azocasein substrates): 40 to 45%
